Residues, ends and D or L forms follow the SMILES beside them. *: point of attachment. X1 = CCc1c2c(nc3ccc(OC(=O)[C@H]4CC[C@H](CNC(=O)[C@H]5CC[C@H](CN6C(=O)CC(*)C6=O)CC5)CC4)cc13)-c1cc3c(c(=O)n1C2)COC(=O)[C@]3(O)CC
Assays:
Assay type in all cases: in vivo
[1] = Crossing of the blood brain barrier; settings: by passive transcytosis mechanism
Description: (§1) Therefore, using our targeted therapy, a small amount of IF7-SN38 is required to be injected to patients. The efficiency of IF7-SN38 is unprecedented in mice, in particular for the brain malignancies. […] It is believed that IF7-SN38 would work far better than PEGylated SN38 by targeting malignant tumors including brain malignancy. The low dosage, specificity, and easily degrading nature of IF7-SN38 in targeted cells to release SN38, are the major factors for the superiority of our drug to PEG-SN38.

tumors = test: Treatment of mice with tumors using IF7-SN38
Description: as §1

[2] = test system: human colon HCT116 tumors; test: IF7-SN38 injected intravenously into nude mice carrying human colon HCT116 tumors; settings: intravenous, low dosages

CCc1c2c(nc3ccc(OC(=O)[C@H]4CC[C@H](CNC(=O)[C@H]5CC[C@H](CN6C(=O)CC(SC[C@H](NC(=O)[C@H](CCCNC(=N)N)NC(=O)[C@H](CCC(N)=O)NC(=O)[C@H](Cc7c[nH]c8ccccc78)NC(=O)[C@H](CC(C)C)NC(=O)[C@H](CC(C)C)NC(=O)[C@H](Cc7ccccc7)NC(=O)[C@@H](N)[C@@H](C)CC)C(=O)N[C@@H](CCCNC(=N)N)C(=O)N[C@@H](CCCNC(=N)N)C(=O)O)C6=O)CC5)CC4)cc13)-c1cc3c(c(=O)n1C2)COC(=O)[C@]3(O)CC (stereo partly drawn) [IF7-SN38] (H-IFLLWQRC(X1)RR-OH; N-terminus and C-terminus assumed)
blood brain barrier [1]: overcomes blood brain barrier | side effects in the treated mice (tumors): without producing any side effects | side effects [2]: no apparent side effects
